Data taken from PMC11996885, “Identification of potent biparatopic antibodies targeting FGFR2 fusion–driven cholangiocarcinoma” (The Journal of Clinical Investigation, 2025).

Columns and labels:
[1] = target: T1, hFGFR2 ECD 22-378 His-tag (human, UniProt P21802-3, biotin (Abcam Biotinylation Kit) in the epitope binning only); test: BLI; Octet RED96e, 25°C, 1,000 rpm, 1x kinetic buffer; antibodies captured on anti-human Fc (AHC) biosensors at 0.5 ug/mL; hFGFR2 ECD 22-378 His-tag as analyte, 7 2-fold dilutions from 100 nM; association 300 s, dissociation 600 s; 1:1 model, global fit; apparent Kd for the biparatopic antibodies; conditions: both partners purified
T1 construct: human FGFR2 extracellular domain, residues 22-378, SinoBiological 16485-H08H; also called hFGFR2 ECD AA22-AA378 His-tag; source: bought: SinoBiological
T1 sequence (P21802 other isoform, or with tags, fused parts or gaps): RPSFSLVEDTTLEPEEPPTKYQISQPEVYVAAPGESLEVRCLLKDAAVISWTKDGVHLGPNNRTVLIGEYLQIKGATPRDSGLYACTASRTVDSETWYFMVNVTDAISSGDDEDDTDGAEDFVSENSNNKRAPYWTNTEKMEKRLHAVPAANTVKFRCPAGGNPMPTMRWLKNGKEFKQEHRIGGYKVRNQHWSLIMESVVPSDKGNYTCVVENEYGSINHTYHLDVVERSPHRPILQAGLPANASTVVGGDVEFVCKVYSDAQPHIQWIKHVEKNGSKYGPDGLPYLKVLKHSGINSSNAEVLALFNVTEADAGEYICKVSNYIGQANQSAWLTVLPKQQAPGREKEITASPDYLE

[2] = target: T2, full-length FGFR2-BICC1 on NIH3T3 cells (Homo sapiens, UniProt P21802-3, chimera); test: flow cytometry on cells; NIH3T3 cells expressing full-length FGFR2-BICC1 or its D1, D2, D3 or D2+D3 deletion variants, parental antibody A-F at 10 μg/mL in 1x PBS (Mg2+ free), 1.5 hours at room temperature; anti-human IgG secondary antibody; conditions: one partner purified
T2 construct: FGFR2 part of the fusion, from its N-terminus with the extracellular domain to the breakpoint; the printed Gln361 fits the IIIb isoform (FGFR2b); BICC1 part of the fusion; also called FL; source: NIH3T3, transfected, on cells
T2 sequence (P21802 whole entry, looked up, stated change not applied, the tested form may be a part, canonical isoform): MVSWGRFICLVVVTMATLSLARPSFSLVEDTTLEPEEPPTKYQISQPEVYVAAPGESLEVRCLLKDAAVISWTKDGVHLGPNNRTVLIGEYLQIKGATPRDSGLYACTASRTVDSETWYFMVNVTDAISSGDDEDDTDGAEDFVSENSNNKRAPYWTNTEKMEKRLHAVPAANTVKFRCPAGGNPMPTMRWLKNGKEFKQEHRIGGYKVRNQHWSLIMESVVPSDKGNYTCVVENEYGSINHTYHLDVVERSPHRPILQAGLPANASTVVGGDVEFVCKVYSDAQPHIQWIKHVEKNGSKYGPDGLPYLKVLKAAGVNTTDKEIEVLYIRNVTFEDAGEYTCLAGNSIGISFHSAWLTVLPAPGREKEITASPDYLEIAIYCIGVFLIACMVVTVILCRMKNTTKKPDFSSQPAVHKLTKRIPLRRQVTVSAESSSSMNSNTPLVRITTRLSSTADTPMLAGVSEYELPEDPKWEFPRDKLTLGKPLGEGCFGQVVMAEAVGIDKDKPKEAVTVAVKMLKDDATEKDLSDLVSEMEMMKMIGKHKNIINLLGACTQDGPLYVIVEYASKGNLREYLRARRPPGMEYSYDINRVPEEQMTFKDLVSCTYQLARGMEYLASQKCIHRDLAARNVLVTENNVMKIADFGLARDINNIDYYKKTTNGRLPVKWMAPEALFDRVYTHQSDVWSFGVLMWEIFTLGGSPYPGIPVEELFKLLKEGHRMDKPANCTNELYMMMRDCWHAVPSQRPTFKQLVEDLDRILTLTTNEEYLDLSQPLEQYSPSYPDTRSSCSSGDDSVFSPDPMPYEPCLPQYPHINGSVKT

[3] = target: T3, hFGFR2 ECD 22-378 His-tag (Homo sapiens, UniProt P21802-3); test: BLI; Octet RED96e, 25 C, 1,000 rpm, 1x kinetic buffer; antibody captured on anti-human Fc (AHC) biosensor at 0.5 ug/mL; hFGFR2 ECD 22-378 His-tag as analyte, 7 two-fold dilutions from 100 nM; 1:1 model, global fit; apparent; conditions: both partners purified
T3 construct: FGFR2, human, extracellular domain residues 22-378 (SinoBiological 16485-H08H); Analyte of the BLI kinetics; also called hFGFR2 ECD AA22-AA378 His-tag; source: bought: SinoBiological

[4] = target: T4, FGFR2 on SNU16 cells (FGFR2 amplification) (Homo sapiens (SNU-16, endogenous), UniProt P21802-3); test: flow cytometry on cells; SNU-16 cells incubated with serial dilutions of parental antibody A-F in 1x PBS (Mg2+ free), 1.5 hours at room temperature; anti-human IgG secondary antibody; fit with a ligand-binding quadratic equation; apparent Kd; conditions: one partner purified
T4 construct: FGFR2 endogenous on SNU16 cells; source: endogenous, SNU16 cells
T4 sequence (P21802 22-821): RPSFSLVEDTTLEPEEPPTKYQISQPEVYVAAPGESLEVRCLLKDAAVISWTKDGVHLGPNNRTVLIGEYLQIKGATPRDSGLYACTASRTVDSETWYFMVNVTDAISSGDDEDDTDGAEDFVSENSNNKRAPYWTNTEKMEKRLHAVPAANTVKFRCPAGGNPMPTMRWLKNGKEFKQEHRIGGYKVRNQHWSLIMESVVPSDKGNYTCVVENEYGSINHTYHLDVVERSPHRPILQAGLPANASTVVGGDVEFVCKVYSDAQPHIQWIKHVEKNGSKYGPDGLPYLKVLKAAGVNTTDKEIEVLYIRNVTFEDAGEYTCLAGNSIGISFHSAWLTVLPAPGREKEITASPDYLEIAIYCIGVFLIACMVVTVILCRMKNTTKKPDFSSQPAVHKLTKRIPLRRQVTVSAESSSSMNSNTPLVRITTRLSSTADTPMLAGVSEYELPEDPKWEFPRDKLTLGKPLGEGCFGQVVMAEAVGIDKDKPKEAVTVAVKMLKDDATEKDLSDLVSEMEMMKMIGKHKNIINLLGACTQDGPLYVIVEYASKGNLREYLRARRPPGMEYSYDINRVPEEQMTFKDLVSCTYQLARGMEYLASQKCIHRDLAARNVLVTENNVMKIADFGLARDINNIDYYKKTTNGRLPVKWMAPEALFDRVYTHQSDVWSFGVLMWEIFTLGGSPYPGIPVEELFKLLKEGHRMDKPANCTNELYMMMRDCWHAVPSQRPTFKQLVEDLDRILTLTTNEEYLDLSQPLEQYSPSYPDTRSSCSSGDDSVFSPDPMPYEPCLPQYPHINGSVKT

[5] = target: T5, hFGFR2 ECD 22-378 His-tag (Homo sapiens, UniProt P21802-3, biotin in the epitope binning only (Abcam Biotinylation Kit)); test: BLI; Octet RED96e, 25°C, 1x kinetic buffer; antibodies captured on Anti-Human Fc capture biosensor at 0.5 μg/mL; hFGFR2 ECD 22-378 His-tag as analyte, 2-fold dilutions from 100 nM; 1:1 binding model; apparent affinity; conditions: both partners purified
T5 construct: human FGFR2 extracellular domain, residues 22-378; The antigen of the MSD-SET assay and the FGFR2 ECD of the SEC-MALS experiment are not described; also called hFGFR2 ECD AA22-AA378 His-tag; antigen; source: bought: SinoBiological
T5 sequence (P21802 other isoform, or with tags, fused parts or gaps): as the sequence (P21802 other isoform, or with tags, fused parts or gaps) above

B1: Anti-FGFR2 parental antibody C (antibody, V domains shown)
VH: QVQLVESGGGLVKPGGSLRLSCAASGFTFSSYALSWVRQAPGKGLEWVGRIRSKIDGGTTDYAAPVKGRFTISRDDSKNTLYLQMNSLKTEDTAVYYCARDRSPSDSSAFAIWGQGTLVTVSS
VL: DIELTQPPSVSVSPGQTASITCSGDNLGSQYVDWYQQKPGQAPVLVIYDDNDRPSGIPERFSGSNSGNTATLTISGTQAEDEADYYCQSWDSLSVVFGGGTKLTVL
notes: VH of antibody C; VL of antibody C; Full human IgG1; The label 'N10' in some supplementary panels probably means C; also called Ab-C; copies: 2 + 2
- Kd [1]: 7.05 nM
- koff [1]: 0.00292 s⁻¹
- kon [1]: 417000 M⁻¹ s⁻¹

B2: FGFR2 parental antibody C (antibody, V domains shown)
VH: QVQLVESGGGLVKPGGSLRLSCAASGFTFSSYALSWVRQAPGKGLEWVGRIRSKIDGGTTDYAAPVKGRFTISRDDSKNTLYLQMNSLKTEDTAVYYCARDRSPSDSSAFAIWGQGTLVTVSS
VL: DIELTQPPSVSVSPGQTASITCSGDNLGSQYVDWYQQKPGQAPVLVIYDDNDRPSGIPERFSGSNSGNTATLTISGTQAEDEADYYCQSWDSLSVVFGGGTKLTVL
notes: heavy chain of antibody C, IgG1; light chain of antibody C; IgG1; One of the six parental antibodies is the parental antibody of bemarituzumab; also called Ab-C; copies: 2 + 2
- binding result [2]: binds

B3: anti-FGFR2 parental antibody C (antibody, V domains shown)
VH: QVQLVESGGGLVKPGGSLRLSCAASGFTFSSYALSWVRQAPGKGLEWVGRIRSKIDGGTTDYAAPVKGRFTISRDDSKNTLYLQMNSLKTEDTAVYYCARDRSPSDSSAFAIWGQGTLVTVSS
VL: DIELTQPPSVSVSPGQTASITCSGDNLGSQYVDWYQQKPGQAPVLVIYDDNDRPSGIPERFSGSNSGNTATLTISGTQAEDEADYYCQSWDSLSVVFGGGTKLTVL
notes: heavy chain of antibody C; light chain of antibody C; IgG1; also called Ab-C; copies: 2 + 2
- Kd [3]: 7.05 nM

B4: Anti-FGFR2 parental antibody D (antibody, V domains shown)
VH: EVQLVESGGGLVQPGGSLRLSCAASGFPFTSTGISWVRQAPGKGLEWVGRTHLGDGSTNYADSVKGRFTISADTSKNTAYLQMNSLRAEDTAVYYCARTYGIYDTYDMYTEYVMDYWGQGTLVTVSS
VL: DIQMTQSPSSLSASVGDRVTITCRASQDVDTSLAWYKQKPGKAPKLLIYSASFLYSGVPSRFSGSGSGTDFTLTISSLQPEDFATYYCQQSTGHPQTFGQGTKVEIK
notes: VH of antibody D; VL of antibody D; Full human IgG1; also produced with F405L or K409R in the Fc for Fab-arm exchange; The label 'GE' in some supplementary panels probably means D; also called Ab-D; copies: 2 + 2
- Kd [1]: 2.79 nM
- koff [1]: 0.000741 s⁻¹
- kon [1]: 282000 M⁻¹ s⁻¹

B5: anti-FGFR2 parental antibody D (antibody, V domains shown)
VH: EVQLVESGGGLVQPGGSLRLSCAASGFPFTSTGISWVRQAPGKGLEWVGRTHLGDGSTNYADSVKGRFTISADTSKNTAYLQMNSLRAEDTAVYYCARTYGIYDTYDMYTEYVMDYWGQGTLVTVSS
VL: DIQMTQSPSSLSASVGDRVTITCRASQDVDTSLAWYKQKPGKAPKLLIYSASFLYSGVPSRFSGSGSGTDFTLTISSLQPEDFATYYCQQSTGHPQTFGQGTKVEIK
notes: heavy chain of antibody D; light chain of antibody D; IgG1; also called Ab-D; copies: 2 + 2
- Kd [3]: 2.79 nM

B6: FGFR2 parental antibody D (antibody, V domains shown)
VH: EVQLVESGGGLVQPGGSLRLSCAASGFPFTSTGISWVRQAPGKGLEWVGRTHLGDGSTNYADSVKGRFTISADTSKNTAYLQMNSLRAEDTAVYYCARTYGIYDTYDMYTEYVMDYWGQGTLVTVSS
VL: DIQMTQSPSSLSASVGDRVTITCRASQDVDTSLAWYKQKPGKAPKLLIYSASFLYSGVPSRFSGSGSGTDFTLTISSLQPEDFATYYCQQSTGHPQTFGQGTKVEIK
notes: heavy chain of antibody D, IgG1; light chain of antibody D; IgG1; One of the six parental antibodies is the parental antibody of bemarituzumab; also called Ab-D; copies: 2 + 2
- binding result [2]: binds

B7: Anti-FGFR2 parental antibody B (antibody, V domains shown)
VH: QIQLVQSGPELKKPGETVKISCKASGYTFTDFGMNWMKQAPGKGFKWMGWINTSTGESTYADDFKGRFAFSLETSASTAYLQINNLKNEDMATYFCARNSYYGGSYGYWGQGTTLTVSS
VL: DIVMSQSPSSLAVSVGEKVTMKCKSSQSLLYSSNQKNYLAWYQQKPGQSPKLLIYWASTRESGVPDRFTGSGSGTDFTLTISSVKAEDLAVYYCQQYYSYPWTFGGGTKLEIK
notes: VH of antibody B; VL of antibody B; Full human IgG1; also produced with F405L or K409R in the Fc for Fab-arm exchange; The label 'Gal' in some supplementary panels probably means B; also called Ab-B; copies: 2 + 2
- Kd [1]: 5.5 nM
- koff [1]: 0.000316 s⁻¹
- kon [1]: 53100 M⁻¹ s⁻¹

B8: FGFR2 parental antibody B (antibody, V domains shown)
VH: QIQLVQSGPELKKPGETVKISCKASGYTFTDFGMNWMKQAPGKGFKWMGWINTSTGESTYADDFKGRFAFSLETSASTAYLQINNLKNEDMATYFCARNSYYGGSYGYWGQGTTLTVSS
VL: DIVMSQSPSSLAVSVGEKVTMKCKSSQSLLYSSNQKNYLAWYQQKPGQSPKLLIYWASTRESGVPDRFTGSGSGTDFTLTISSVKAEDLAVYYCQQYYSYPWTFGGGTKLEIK
notes: heavy chain of antibody B, IgG1; light chain of antibody B; IgG1; One of the six parental antibodies is the parental antibody of bemarituzumab; also called Ab-B; copies: 2 + 2
- binding result [2]: binds

B9: anti-FGFR2 parental antibody B (antibody, V domains shown)
VH: QIQLVQSGPELKKPGETVKISCKASGYTFTDFGMNWMKQAPGKGFKWMGWINTSTGESTYADDFKGRFAFSLETSASTAYLQINNLKNEDMATYFCARNSYYGGSYGYWGQGTTLTVSS
VL: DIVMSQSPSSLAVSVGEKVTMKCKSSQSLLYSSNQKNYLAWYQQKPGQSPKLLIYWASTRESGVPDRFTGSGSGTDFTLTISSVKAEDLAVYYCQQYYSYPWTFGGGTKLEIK
notes: heavy chain of antibody B; light chain of antibody B; IgG1; also called Ab-B; copies: 2 + 2
- Kd [3]: 5.5 nM

B10: FGFR2 parental antibody A (antibody, V domains shown)
VH: EVQLLESGGGLVQPGGSLRLSCAASGFTFSSYAMSWVRQAPGKGLEWVSAISGSGTSTYYADSVKGRFTISRDNSKNTLYLQMNSLRAEDTAVYYCARVRYNWNHGDWFDPWGQGTLVTVSS
VL: QSVLTQPPSASGTPGQRVTISCSGSSSNIGNNYVSWYQQLPGTAPKLLIYENYNRPAGVPDRFSGSKSGTSASLAISGLRSEDEADYYCSSWDDSLNYWVFGGGTKLTVL
notes: heavy chain of antibody A, IgG1; light chain of antibody A; IgG1; One of the six parental antibodies is the parental antibody of bemarituzumab; also called Ab-A; copies: 2 + 2
- binding result [4]: binds
- binding result [5]: binds
- binding result [2]: binds

B11: FGFR2 parental antibody F (antibody, V domains shown)
VH: QVQLVQSGAEVKKPGESLKISCKGSGYSFTNYYIHWVRQMPGKGLEWMGAIYPDNSDTTYSPSFQGQVTISADKSISTAYLQWSSLKASDTAMYYCARGADIWGQGTLVTVSS
VL: DIQMTQSPSSLSASVGDRVTITCRASQDIDPYLSNWYQQKPGKAPKLLIYDASNLQSGVPSRFSGSGSGTDFTLTISSLQPEDFATYYCQQTTSHPYTFGQGTKVEIK
notes: heavy chain of antibody F, IgG1; light chain of antibody F; IgG1; One of the six parental antibodies is the parental antibody of bemarituzumab; also called Ab-F; copies: 2 + 2
- binding result [4]: binds
- binding result [5]: binds
- binding result [2]: binds

B12: FGFR2 parental antibody E (antibody, V domains shown)
VH: QVQLVQSGAEVKKPGSSVKVSCKASGYIFTTYNVHWVRQAPGQGLEWIGSIYPDNGDTSYNQNFKGRATITADKSTSTAYMELSSLRSEDTAVYYCARGDFAYWGQGTLVTVSS
VL: DIQMTQSPSSLSASVGDRVTITCKASQGVSNDYAWYQQKPGKAPKLLIYSASYRYTGVPSRFSGSGSGTDFTFTISSLQPEDIATYYCQQHSTTPYTFGQGTKLEIK
notes: heavy chain of antibody E, IgG1; light chain of antibody E; IgG1; One of the six parental antibodies is the parental antibody of bemarituzumab; Also used as the FGFR2 immunoblot reagent (Genscript); also called Ab-E; copies: 2 + 2
- binding result [4]: binds
- binding result [5]: binds
- binding result [2]: binds
